This is an account of results in US20100310549A1 (Bristol-Myers Squibb, published 2010).

Test [1] deals with T1, full-length human KDR on CHO-KDR cells (human, UniProt P35968 20-1356).
T1 construct: whole, on cells; stably transfected CHO-K1 cells
The experiment in a line: flow cytometry on CHO-KDR cells, His6-tagged protein, anti-His6 MAb and Alexa Fluor 488 anti-mouse antibody. The procedure:
Binding of fibronectin-based scaffold protein to cell-surface KDR and Flk-1 was analyzed simultaneously on VEGF-R2-expressing and control cells by flow cytometry. CHO-pcDNA3 cells (control) were released from their dishes with trypsin-EDTA, washed in Dulbecco's PBS without calcium and magnesium (D-PBS⁻; Invitrogen), and stained for 30 minutes at 37° C. with 1.5 μM CMTMR (5-(and-6)-(((4-chloromethyl)benzoyl)amino)-tetramethylrhodamine) (Molecular Probes). The cells were washed in D-PBS⁻ and incubated for a further 30 minutes at 37° C., and then resuspended in blocking buffer (D-PBS710% fetal bovine serum) on ice. CHO-KDR or CHO-Flk cells were treated identically except that CMTMR was omitted. […] For cells treated with an anti-KDR mouse monoclonal antibody (Accurate Chemical, Westbury, N.Y.) or an anti-flk-1 goat polyclonal antibody (R&D Systems), the anti-His₆ step was omitted, and antibody binding was detected with the species-appropriate Alexa Fluor 488 conjugated secondary antibody (Molecular Probes). Following staining, cells were resuspended in 200 μl/well D-PBS⁻/1% FBS/1 μg/ml 7-aminoactinomycin D (7-AAD; Molecular Probes) and analyzed by flow cytometry on a FACSCalibur (Becton Dickinson, San Jose, Calif.) equipped with a […]. […]

For test [2], the target named is T2, human vascular endothelial growth factor receptor-2 Fc chimera (KDR-Fc) (human, UniProt P35968 20-764).
T2 construct: range 1-764; also called human VEGF-R2-Fc; hKDR; not shown: human IgG1 Fc
The experiment in a line: BIAcore, 20 nM KDR-Fc over immobilized VEGF165 in the presence of the soluble binder; blocked ligand VEGF165. How it is done: For inhibition experiments, human VEGF₁₆₅ was immobilized on a surface of CM-5 chip and KDR-Fc was injected at a concentration of 20 nM in the presence of different concentrations of soluble binding proteins ranging from 0 to 100 nM. IC₅₀ was determined at a concentration when only 50% of KDR-Fc binding to the chip was observed.

T1 sequence (P35968 20-1356): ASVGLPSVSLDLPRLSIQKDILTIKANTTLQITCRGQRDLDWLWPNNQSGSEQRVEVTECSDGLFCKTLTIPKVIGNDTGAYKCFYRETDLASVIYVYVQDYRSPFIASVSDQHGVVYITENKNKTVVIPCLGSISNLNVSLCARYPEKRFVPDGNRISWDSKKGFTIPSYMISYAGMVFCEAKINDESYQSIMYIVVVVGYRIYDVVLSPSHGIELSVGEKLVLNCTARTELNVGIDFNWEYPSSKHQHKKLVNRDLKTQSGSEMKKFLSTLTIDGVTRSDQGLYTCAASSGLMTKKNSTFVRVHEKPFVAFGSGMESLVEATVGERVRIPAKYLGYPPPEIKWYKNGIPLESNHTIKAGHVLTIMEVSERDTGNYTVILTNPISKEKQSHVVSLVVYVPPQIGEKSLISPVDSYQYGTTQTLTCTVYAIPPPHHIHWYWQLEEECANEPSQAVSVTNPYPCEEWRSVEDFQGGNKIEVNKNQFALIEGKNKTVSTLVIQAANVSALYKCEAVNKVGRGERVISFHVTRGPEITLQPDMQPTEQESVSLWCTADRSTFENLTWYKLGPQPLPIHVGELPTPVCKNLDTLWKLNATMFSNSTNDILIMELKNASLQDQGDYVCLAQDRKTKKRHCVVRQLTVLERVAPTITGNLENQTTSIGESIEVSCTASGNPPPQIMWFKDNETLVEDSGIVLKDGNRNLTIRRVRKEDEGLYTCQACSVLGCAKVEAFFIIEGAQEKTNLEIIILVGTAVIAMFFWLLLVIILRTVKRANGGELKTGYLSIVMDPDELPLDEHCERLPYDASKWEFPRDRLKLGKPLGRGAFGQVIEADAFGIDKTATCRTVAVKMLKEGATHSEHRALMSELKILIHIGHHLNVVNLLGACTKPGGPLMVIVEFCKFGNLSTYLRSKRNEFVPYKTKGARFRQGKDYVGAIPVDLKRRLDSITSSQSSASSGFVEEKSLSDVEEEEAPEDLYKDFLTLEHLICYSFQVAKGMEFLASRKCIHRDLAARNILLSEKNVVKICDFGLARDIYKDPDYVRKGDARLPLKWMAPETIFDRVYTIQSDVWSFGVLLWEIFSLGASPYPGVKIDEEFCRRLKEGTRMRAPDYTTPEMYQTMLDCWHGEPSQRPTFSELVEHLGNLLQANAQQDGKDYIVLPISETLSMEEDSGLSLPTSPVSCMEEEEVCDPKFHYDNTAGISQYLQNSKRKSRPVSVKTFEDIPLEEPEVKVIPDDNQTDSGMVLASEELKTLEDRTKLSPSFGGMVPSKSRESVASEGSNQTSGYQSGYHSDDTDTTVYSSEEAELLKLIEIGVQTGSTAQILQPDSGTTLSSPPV
T2 sequence (P35968 20-764 limits assumed, change not shown, form in doubt): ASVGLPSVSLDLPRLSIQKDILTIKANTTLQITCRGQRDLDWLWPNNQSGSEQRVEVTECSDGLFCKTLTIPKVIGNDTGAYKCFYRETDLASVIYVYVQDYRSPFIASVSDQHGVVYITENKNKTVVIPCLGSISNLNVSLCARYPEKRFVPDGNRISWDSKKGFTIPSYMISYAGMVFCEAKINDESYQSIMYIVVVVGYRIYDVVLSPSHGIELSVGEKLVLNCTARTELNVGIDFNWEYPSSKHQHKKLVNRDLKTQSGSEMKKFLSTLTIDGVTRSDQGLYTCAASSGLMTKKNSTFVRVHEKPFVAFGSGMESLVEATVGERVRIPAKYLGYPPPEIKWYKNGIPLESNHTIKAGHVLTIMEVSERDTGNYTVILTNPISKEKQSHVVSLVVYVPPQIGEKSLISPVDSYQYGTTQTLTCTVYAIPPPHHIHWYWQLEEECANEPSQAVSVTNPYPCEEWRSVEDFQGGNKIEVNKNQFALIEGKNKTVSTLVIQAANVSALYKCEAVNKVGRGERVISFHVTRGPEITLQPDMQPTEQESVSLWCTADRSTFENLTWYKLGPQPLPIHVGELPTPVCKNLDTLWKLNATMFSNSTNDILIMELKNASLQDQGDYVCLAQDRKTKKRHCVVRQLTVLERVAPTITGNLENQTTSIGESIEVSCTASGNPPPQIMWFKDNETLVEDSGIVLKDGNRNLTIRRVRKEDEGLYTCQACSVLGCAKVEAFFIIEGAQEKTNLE

B1: WT fibronectin-based scaffold protein (wild-type 10Fn3), E. coli, His6 (other)
chain: VSDVPRDLEVVAATPTSLLISWDAPAVTVRYYRITYGETGGNSPVQEFTVPGSKSTATISGLKPGVDYTITGYAVTGRGDSPASSKPISINYRTEIDKPSQHHHHHH
notes: E. coli-expressed soluble form; N-terminal Met not described
In the case of B1, the binding result in test [1] is “no binding (tested: log[M] about -6.9 (about 1e-7 M))”.

B2: VR28 (designed binder)
chain: VSDVPRDLEVVAATPTSLLISWRHPHFPTRYYRITYGETGGNSPVQEFTVPLQPPTATISGLKPGVDYTITGYAVTVAQNDHELITPISINYRT
notes: 10Fn3 variant, WT N-terminus; also called VR28 (I69T)
On to B2, for which, in test [2], the “IC50 (read off the curve)” value was roughly 20 nM.
